Experimental data published in patent publication US20260042834A1, “ANTI-CORTICOTROPIN-RELEASING HORMONE ANTIBODIES AND POLYCYSTIC OVARY SYNDROME” (HBM ALPHA THERAPEUTICS, INC., priority 2022, published 2026).

System: restraint-induced ACTH and corticosterone
Test: Wildtype mice restraint-stress model (ACTH and corticosterone)
Format: in vivo, mouse
Procedure: 8-10 week old wildtype female C57BL/6 mice were obtained from Charles River Laboratories. Mrap1 KO mice were obtained from Queen Mary University of London, UK. SSR125543A, a small molecule CRHR1 antagonist, was obtained from Axon Medchem (Cat #Axon 1799). Mouse Corticosterone (55-Corms-E01) and adrenocorticotropic hormone (ACTH) ELISA kits (21-ACTHU-E01) were obtained from ALPCO, USA. All procedures were carried out in accordance with the Guide for the Care and Use of Laboratory Animals of the National Institutes of Health. Protocols were approved by Charles River Laboratories Institutional Animal Care and Use Committee (IACUC).
To determine the effect of nonpainful physical restraint upon stress responses, mice were restrained in 50 ml polypropylene ventilated tubes in which the tip was cut off with a razor blade to allow the mouse to breathe easily for 15-20 minutes. A mouse was directed to the open tube and crawled in. A piece of paper towel was put behind the mouse so that it could not back out, and the cap was screwed on. The mouse was placed back in its cage, ventral size down on the bedding. This stressor is not considered painful, as mice are confined to a limited space (in a ventilated restraint tube) but not in an unnatural physical position. The investigator was present in the room during the entire procedure. At the end of the procedure, the mouse was removed by the tail.
On day 1, each mouse was injected intraperitoneally with 20 mg/kg of anti-CRH mAbs, hIgG1 or PBS (5 mice per group). On day 2 or 3, and 14 each mouse was subjected to physical restraint-stress described above for 15 or 20 min. Immediately after restraint-stress, 200 μl of blood was collected in EDTA tubes from the submandibular vein of each mouse. Plasma was separated using a refrigerated centrifuge (4° C. at 500×g for 10 min) and snap-frozen in dry ice for subsequent ACTH and corticosterone ELISA measurement.
On day 1, one half of mice were injected IP with 20 mg/kg of anti-CRH Ab or hIgG1 (5 mice per group). On day 3, the other half of mice were injected IP with 30 mg/kg of SSR125543A or solvent (5 mice each group). Two hours later, four groups of mice were subjected to restraint-stress as described above for 20 min. Immediately after restraint-stress, 200 μl of blood was collected in EDTA tubes from the submandibular vein of each mouse in all four groups. Plasma was separated as described above and snap-frozen in dry ice for subsequent ACTH and corticosterone ELISA measurement. On day 4, SSR125543A or solvent-treated mice were subjected to a second round of restraint stress for 20 min and plasma was collected. Two weeks later, anti-CRH mAb- or hIgG1-treated mice were subjected to physical stress for 20 min followed by plasma collection.

B1: PR302334-24: humanized variant of Series 9 mAb PR302334; VH SEQ ID NO: 275, VL SEQ ID NO: 328 (antibody, V domains shown)
VH: EVQLVESGGGLVKPGGSLRLSCAASGFTFSTYAMSWVRQAPGKGLEWVASIRSGGTTYYPDSVKGRFTISRDNAKNSLYLQMNSLRAEDTAVYYCTRGIDWGQGTTVTVSS
VL: DIVMTQSPDSLAVSLGERATINCKASQSVNNDVAWYQQKPGQPPRLLIYYASNRYTGVPDRFSGSGSGTDFTLTISSLQAEDLAVYFCQQDYSSWTFGGGTKVEIK
modifications: PR302334-16 VH, PR302334-24 VH, PR302334-25 VH; PR302334-10 VL, PR302334-24 VL, PR302334-26 VL, PR302334-4 VL
efficacy versus SSR125543A at inhibiting restraint induced ACTH and corticosterone (doses not given): superior efficacy
duration of the effects (restraint): at least 17 days
inhibition of ACTH and corticosterone versus SSR125543A (restraint): more complete inhibition
efficacy in reducing plasma ACTH and corticosterone levels versus SSR125543A at 30 mg/kg (restraint, mAb 20 mg/kg): more efficacious
